In US20170313754A1 (PROTAGONIST THERAPEUTICS, published 2017):
Numbered stars: 1 amine (or outer) side, 2 acyl side, 3 side chain; on linkers, the order of the positions; unused ones are H or OH. Bridge positions count the residues as written; N and C are the ends. Square brackets hold non-standard residues; d marks the D form. Primed or numbered codes have the meaning given here. Ends that are not written are not given here. * marks the point of attachment. IDA = iminodiacetic acid, O=C(CN(CC(=O)[*:3])[*:1])[*:2]; Ida = iminodiacetic acid, O=C(CN(CC(=O)[*:3])[*:1])[*:2]; PEG3′ = NH2CH2CH2(OCH2CH2)3CH2CH2CO2H (PEG3 linker); Dip = N[C@H](C(=O)O)C(c1ccccc1)c1ccccc1; Palmitoyl = CCCCCCCCCCCCCCCC(=O)*; β3hF = N[C@H](CC(=O)O)Cc1ccccc1; pGlu = O=C1CC[C@@H](C(=O)O)N1; β3hP = O=C(O)C[C@@H]1CCCN1; Isovaleryl = CC(C)CC(=O)*; Palm = palmitoyl

T1: human ferroportin (SLC40A1) fused in frame with GFP, stably expressed on HEK293 cells (human, UniProt Q9NP59 1-571)
T1 sequence (looked up): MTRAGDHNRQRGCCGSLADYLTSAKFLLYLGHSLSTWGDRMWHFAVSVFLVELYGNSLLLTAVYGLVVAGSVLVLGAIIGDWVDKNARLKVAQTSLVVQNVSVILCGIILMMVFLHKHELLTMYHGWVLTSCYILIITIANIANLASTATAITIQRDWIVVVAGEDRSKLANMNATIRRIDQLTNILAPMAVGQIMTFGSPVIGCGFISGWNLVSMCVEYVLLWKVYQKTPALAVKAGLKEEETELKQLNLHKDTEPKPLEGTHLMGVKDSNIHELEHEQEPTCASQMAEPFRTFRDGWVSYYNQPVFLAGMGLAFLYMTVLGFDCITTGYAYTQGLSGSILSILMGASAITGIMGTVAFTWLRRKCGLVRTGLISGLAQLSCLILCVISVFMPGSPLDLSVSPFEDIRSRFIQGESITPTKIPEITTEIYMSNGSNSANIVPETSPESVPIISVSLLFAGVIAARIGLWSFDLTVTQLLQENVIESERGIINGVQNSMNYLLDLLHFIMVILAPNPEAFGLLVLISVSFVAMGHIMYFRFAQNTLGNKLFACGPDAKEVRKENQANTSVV

T2: human ferroportin (SLC40A1) fused in frame with GFP, stably expressed on HEK293 cells (human, UniProt Q9NP59 1-571)
T2 sequence (looked up): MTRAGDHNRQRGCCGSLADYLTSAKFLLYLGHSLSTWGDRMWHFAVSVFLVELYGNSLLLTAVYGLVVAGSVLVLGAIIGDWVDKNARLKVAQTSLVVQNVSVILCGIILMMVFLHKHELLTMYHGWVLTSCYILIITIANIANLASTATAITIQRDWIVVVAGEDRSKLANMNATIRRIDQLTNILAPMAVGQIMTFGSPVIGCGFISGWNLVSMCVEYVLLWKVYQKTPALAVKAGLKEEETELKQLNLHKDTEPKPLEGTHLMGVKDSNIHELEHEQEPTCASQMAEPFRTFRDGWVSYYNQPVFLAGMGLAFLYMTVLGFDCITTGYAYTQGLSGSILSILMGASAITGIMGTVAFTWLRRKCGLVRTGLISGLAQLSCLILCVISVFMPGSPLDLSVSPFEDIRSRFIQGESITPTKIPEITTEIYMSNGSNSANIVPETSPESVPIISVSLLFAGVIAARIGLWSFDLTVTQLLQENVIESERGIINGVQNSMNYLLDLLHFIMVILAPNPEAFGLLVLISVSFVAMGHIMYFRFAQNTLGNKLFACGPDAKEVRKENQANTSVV


These binders were tested against T1, human ferroportin (SLC40A1) fused in … (assay: cell-based or functional assay).

Row | percent at the stated concentration, ferroportin internalization/degradation assay | EC50 (nM), ferroportin internalization/degradation assay [nM] | Binder
1 | 9 % at 10 uM |  | H-DTHFPCKIF-NH2 [Hy-DTHFPCKIF-NH2]
2 |  | > 1000 | H-DTHFPCQIF-NH2 [Hy-DTHFPCQIF-NH2]
3 |  | > 1000 | H-DTHFPRRFGPRSKGWVC-NH2 [Hy-DTHFPRRFGPRSKGWVC-NH2]
4 |  | > 1000 | [pGlu]THFPCRKF-NH2 (SMILES C[C@@H](O)[C@H](NC(=O)[C@@H]1CCC(=O)N1)C(=O)N[C@@H](Cc1c[nH]cn1)C(=O)N[C@@H](Cc1ccccc1)C(=O)N1CCC[C@H]1C(=O)N[C@@H](CS)C(=O)N[C@@H](CCCNC(=N)N)C(=O)N[C@@H](CCCCN)C(=O)N[C@@H](Cc1ccccc1)C(N)=O) [Hy-[pGlu]-THFPCRKF-NH2]
5 | 81 % at 10 uM |  | H-DTHFPCVIF-NH2 [Hy-DTHFPCVIF-NH2]
6 |  | > 1000 | H-DTHFPCRIFGPRSRGWVCK-NH2 (disulfide 6-18 (inferred)) [Hy-DTHFPCRIFGPRSRGWVCK-NH2]
7 |  | > 1000 | H-DTHFPCIFGPRSKGWVC-NH2 (disulfide 6-17 (inferred)) [Hy-DTHFPCIFGPRSKGWVC-NH2]
8 | 31 % at 10 uM |  | H-DTHFPCRIF-NH2 [Hy-DTHFPCRIF-NH2, listing 1 of 2 here]
9 |  | > 10000 | H-DTHFPCRRF-NH2 [Hy-DTHFPCRRF-NH2]
10 |  | > 1000 | H-DTHFPCRIF-NH2 [Hy-DTHFPCRIF-NH2, listing 2 of 2 here]
11 |  | > 1000 | H-DTHFPCEIF-NH2 [Hy-DTHFPCEIF-NH2]
12 |  | > 1000 | [IDA]THF[β3hP]CRR[β3hF]GPRSKGWVC-NH2 (disulfide 6-18 (inferred)) [[IDA]-THF-[bhPro]-CRR-[bhPhe]GPRSKGWVC-NH2]
13 | 31 % at 10 uM |  | H-DTHFPCRF-NH2 [Hy-DTHFPCRF-NH2]
14 |  | > 10000 | H-DTHFPCLIF-NH2 [Hy-DTHFPCLIF-NH2]
15 | 39 % at 1 uM |  | H-DTHFPCLF-NH2 [Hy-DTHFPCLF-NH2]
16 |  | > 1000 | Isovaleryl-DTHFPCRRFGPRSKGWVCK-NH2 (disulfide 6-18 (inferred)) [Isovaleric acid-DTHFPCRRFGPRSKGWVCK-NH2]
17 |  | > 1000 | H-DTHFPCAIF-NH2 [Hy-DTHFPCAIF-NH2]

Biological target: T1, human ferroportin (SLC40A1) fused in …
Test: cell-based or functional assay
Remark: another data set of the same source

Row | Potency EC50 (nM), ferroportin internalization/degradation assay [nM] | Binder
18 | 294 | Isovaleryl-DTHFPCIK(Palmitoyl)F-NH2 (also: homodimer, linkage of subunits not given here) [(isovaleric acid-DTHFPCIK(Palm)-F-NH2)2]
19 | 580 | DTHFPICIFK (N-terminal isovaleric acid; Palm on the side chain of Lys 10; C-terminal amide) [(isovaleric acid-DTHFPICIFK(Palm)-NH2)2]
20 | 47 | Isovaleryl-DTHFPCIKFAA-NH2 (also: homodimer, linkage of subunits not given here) [(isovaleric acid-DTHFPCIKFAA-NH2)2]

Biological target: T1, human ferroportin (SLC40A1) fused in …
Test: cell-based or functional assay
Remark: another data set of the same source

Row | Potency EC50 (nM), ferroportin degradation [nM] | Binder
21 | > 10000 | FICIPFHTD (all nine residues are D-amino acids (retro inverse); C-terminal amide) [RI-Mini Hepcidin, Hy-DPhe-DIle-DCys-DIle-DPro-DPhe-DHis-DThr-DAsp-NH2]
22 | 712 | H-DTHFPICIF-NH2 [Mini-Hepcidin 1-9, Hy-DTHFPICIF-NH2]

Biological target: T1, human ferroportin (SLC40A1) fused in …
Test: cell-based or functional assay
Remark: another data set of the same source

Row | EC50 (nM) (n > 3), ferroportin internalization/degradation assay | Binder
23 | 4 | Isovaleryl-DTHFPCIRFK-{K(γGlu-Palm)-NH2} (also: dimer: two subunits joined at C-termini through a Lys linker) [(Isovaleric acid-DTHFPCIRF)2[Lys]-K(iso-Glu-Palm)-NH2]
24 | 30 | DTHFPCIKF (N-terminal isovaleric acid on each subunit; the two subunits are joined at their C-termini through a [Lys]-NH2 linker) [(Isovaleric acid-DTHFPCIKF)2[Lys]-NH2]
25 | 24 | DTHFPCIKF (N-terminal isobutyric acid on each subunit; the two subunits are joined at their C-termini through a [Lys] linker, which is followed by K(iso-Glu-Palm)-NH2) [(isobutyric acid-DTHFPCIKF)2[Lys]K(iso-Glu-Palm)-NH2]
26 | 14 | DTHFPCIKF (N-terminal isovaleric acid on each subunit; the two subunits are joined at their C-termini through a [Lys] linker, which is followed by K(iso-Glu-Palm)-NH2) [(isovaleric acid-DTHFPCIKF)2[Lys]K(iso-Glu-Palm)-NH2]

Biological target: T1, human ferroportin (SLC40A1) fused in …
Test: cell-based or functional assay
Remark: another data set of the same source

Row | EC50 (nM) (n > 3), ferroportin internalization/degradation assay | Binder
27 | 16 | DTHFPCIKF (N-terminal isovaleric acid on each subunit; the two subunits are joined at their C-termini through a [Lys] linker, which is followed by Lys(Palm)-NH2) [(Isovaleric acid-DTHFPCIKF)2[Lys]-Lys(Palm)-NH2]
28 | 4 | Isovaleryl-DTHFPCIRFK-{K(γGlu-Palm)-NH2} (also: dimer: two subunits joined at C-termini through a Lys linker) [(Isovaleric acid-DTHFPCIRF)2[Lys]-K(iso-Glu-Palm)-NH2]
29 | 30 | DTHFPCIKF (N-terminal isovaleric acid on each subunit; the two subunits are joined at their C-termini through a [Lys]-NH2 linker) [(Isovaleric acid-DTHFPCIKF)2[Lys]-NH2]
30 | 24 | DTHFPCIKF (N-terminal isobutyric acid on each subunit; the two subunits are joined at their C-termini through a [Lys] linker, which is followed by K(iso-Glu-Palm)-NH2) [(isobutyric acid-DTHFPCIKF)2[Lys]K(iso-Glu-Palm)-NH2]
31 | 14 | DTHFPCIKF (N-terminal isovaleric acid on each subunit; the two subunits are joined at their C-termini through a [Lys] linker, which is followed by K(iso-Glu-Palm)-NH2) [(isovaleric acid-DTHFPCIKF)2[Lys]K(iso-Glu-Palm)-NH2]

Each binder was assayed against T2, human ferroportin (SLC40A1) fused in … (assay: cell-based or functional assay).

Row | Potency EC50 (nM), ferroportin internalization/degradation assay (loss of GFP fluorescence) [nM] | Binder
32 | 9 | DTHFPCIIFXPHSKGWVC (N-terminal isovaleric acid; sarcosine [Sarc] at position 10; N-methyl-tryptophan [N-MeTrp] at position 16; C-terminal amide (-NH2)) [Cmpd6: Isovaleric acid-DTHFPCIIF-[Sarc]-PHSKG-[N-MeTrp]-VC-NH2]

Biological target: T1, human ferroportin (SLC40A1) fused in …
Test: cell-based or functional assay
Remark: another data set of the same source

Row | Potency EC50 (nM), ferroportin internalization/degradation assay [nM] | Binder
33 | 146 | H-DTHFPICIF-NH2 (also: homodimer, link between subunits not given here) [(Hy-DTHFPICIF-NH2)2]
34 | 31 | [Ida]TH[Dip][β3hP]RCR[β3hF]-{PEG3′-Palm} (also: homodimer, linkage not given here) [(Ida-TH-Dpa-bhPro-RCR-bhPhe-PEG3-Palm)2]

Biological target: T1, human ferroportin (SLC40A1) fused in …
Test: cell-based or functional assay
Remark: another data set of the same source

Row | Potency EC50 (nM), ferroportin internalization/degradation assay [nM] | percent at the stated concentration (printed in the Potency EC50 column), ferroportin internalization/degradation assay [% at 10 uM] | Binder
35 | 297 |  | H-DTHFPCLF-NH2 (also: homodimer, link between subunits not given here) [(Hy-DTHFPCLF-NH2)2]
36 |  | 31 | [pGlu]THFPCRKF-NH2 (also: homodimer, linkage of subunits not given here) [([pGlu]-THFPCRKF-NH2)2]
